We go through five sequences from the supplement of paper PMC5998384.

The test system of series [1] is HeLa Kyoto. Put plainly: solubility in G1/S (NP-40 vs SDS abundance) (log2 ratio); higher = more soluble. The note with it: cell cycle stage: G1/S.
Series [2] concerns HeLa Kyoto. Put plainly: melting temperature (median over replicates), in situ; higher = more thermally stable.
Series [3] deals with HeLa Kyoto. Put plainly: solubility change mitosis vs G1/S (difference of NP-40 vs SDS log2 ratios) (log2 ratio difference); higher = more soluble in mitosis.
The subject of series [4] is HeLa Kyoto. Kind of series: thermal stability score vs G1/S (z-score of summed log2 fold changes over temperatures); higher = more thermally stable than in G1/S.
Where [5] appears, read: cell cycle stage: early G1 (4.5 h after nocodazole release).
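Wherever melting temperature (median over replicates), in situ is given: HeLa Kyoto cells synchronized by double thymidine or nocodazole block, proteins quantified by TMT10plex mass spectrometry, three independent biological replicates.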
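Wherever solubility change mitosis vs G1/S (difference of NP-40 vs SDS log2 ratios) is given: synchronized HeLa Kyoto cells (double thymidine block for G1/S, nocodazole release for mitosis), protein amounts in NP-40 versus SDS lysates quantified by mass spectrometry, three biological replicates.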
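Wherever solubility in G1/S (NP-40 vs SDS abundance) is given: HeLa Kyoto cells arrested at G1/S by double thymidine block, proteins quantified by TMT10plex mass spectrometry in mild NP-40 versus SDS extracts, three biological replicates.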
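Wherever thermal stability score vs G1/S (z-score of summed log2 fold changes over temperatures) is given: synchronized HeLa Kyoto cells, proteins quantified by TMT10plex mass spectrometry, three biological replicates, mitosis taken 0.5 h after nocodazole release, G1/S directly after double thymidine block.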

“MHPAVFLSLPDLRCSLLLLVTWVFTPVTTEITSLDTENIDEILNNADVALVNFYADWCRFSQMLHPIFEEASDVIKEEFPNENQVVFARVDCDQHSDIAQRYRISKYPTLKLFRNGMMMKREYRGQRSVKALADYIRQQKSDPIQEIRDLAEITTLDRSKRNIIGYFEQKDSDNYRVFERVANILHDDCAFLSAFGDVSKPERYSGDNIIYKPPGHSAPDMVYLGAMTNFDVTYNWIQDKCVPLVREITFENGEELTEEGLPFLILFHMKEDTESLEIFQNEVARQLISEKGTINFLHADCDKFRHPLLHIQKTPADCPVIAIDSFRHMYVFGDFKDVLIPGKLKQFVFDLHSGKLHREFHHGPDPTDTAPGEQAQDVASSPPESSFQKLAPSEYRYTLLRDRDEL [ERP44]”: the “solubility in G1/S (log2)” value in series [1] was 0.277. The values for the melting temperature in series [2] (cell cycle stage: G1/S) and in series [2] (cell cycle stage: mitosis) were 53.9 °C and 54.1 °C, respectively. For the same sequence, the “solubility change mitosis (log2)” value in series [3] is -0.0724. The thermal stability score in series [4] (setting [5]) was 5.67; in series [4] (cell cycle stage: mitosis), 6.88.

Turning to “MHPRRPDGFDGLGYRGGARDEQGFGGAFPARSFSTGSDLGHWVTTPPDIPGSRNLHWGEKSPPYGVPTTSTPYEGPTEEPFSSGGGGSVQGQSSEQLNRFAGFGIGLASLFTENVLAHPCIVLRRQCQVNYHAQHYHLTPFTVINIMYSFNKTQGPRALWKGMGSTFIVQGVTLGAEGIISEFTPLPREVLHKWSPKQIGEHLLLKSLTYVVAMPFYSASLIETVQSEIIRDNTGILECVKEGIGRVIGMGVPHSKRLLPLLSLIFPTVLHGVLHYIISSVIQKFVLLILKRKTYNSHLAESTSPVQSMLDAYFPELIANFAASLCSDVILYPLETVLHRLHIQGTRTIIDNTDLGYEVLPINTQYEGMRDCINTIRQEEGVFGFYKGFGAVIIQYTLHAAVLQITKIIYSTLLQNNI [SLC25A46]”, the “solubility in G1/S (log2)” value in series [1] amounted to 0.0119. For the same sequence, the melting temperature came to 54.2 °C in series [2] (cell cycle stage: G1/S) and 53.8 °C in series [2] (cell cycle stage: mitosis). In addition, in series [3], the “solubility change mitosis (log2)” value was -0.0414. Also, the thermal stability score was -2.69 in series [4] (setting [5]) and -1.76 in series [4] (cell cycle stage: mitosis).

For “MHRKKVDNRIRILIENGVAERQRSLFVVVGDRGKDQVVILHHMLSKATVKARPSVLWCYKKELGFSSHRKKRMRQLQKKIKNGTLNIKQDDPFELFIAATNIRYCYYNETHKILGNTFGMCVLQDFEALTPNLLARTVETVEGGGLVVILLRTMNSLKQLYTVTMDVHSRYRTEAHQDVVGRFNERFILSLASCKKCLVIDDQLNILPISSHVATMEALPPQTPDESLGPSDLELRELKESLQDTQPVGVLVDCCKTLDQAKAVLKFIEGISEKTLRSTVALTAARGRGKSAALGLAIAGAVAFGYSNIFVTSPSPDNLHTLFEFVFKGFDALQYQEHLDYEIIQSLNPEFNKAVIRVNVFREHRQTIQYIHPADAVKLGQAELVVIDEAAAIPLPLVKSLLGPYLVFMASTINGYEGTGRSLSLKLIQQLRQQSAQSQVSTTAENKTTTTARLASARTLYEVSLQESIRYAPGDAVEKWLNDLLCLDCLNITRIVSGCPLPEACELYYVNRDTLFCYHKASEVFLQRLMALYVASHYKNSPNDLQMLSDAPAHHLFCLLPPVPPTQNALPEVLAVIQVCLEGEISRQSILNSLSRGKKASGDLIPWTVSEQFQDPDFGGLSGGRVVRIAVHPDYQGMGYGSRALQLLQMYYEGRFPCLEEKVLETPQEIHTVSSEAVSLLEEVITPRKDLPPLLLKLNERPAERLDYLGVSYGLTPRLLKFWKRAGFVPVYLRQTPNDLTGEHSCIMLKTLTDEDEADQGGWLAAFWKDFRRRFLALLSYQFSTFSPSLALNIIQNRNMGKPAQPALSREELEALFLPYDLKRLEMYSRNMVDYHLIMDMIPAISRIYFLNQLGDLALSAAQSALLLGIGLQHKSVDQLEKEIELPSGQLMGLFNRIIRKVVKLFNEVQEKAIEEQMVAAKDVVMEPTMKTLSDDLDEAAKEFQEKHKKEVGKLKSMDLSEYIIRGDDEEWNEVLNKAGPNASIISLKSDKKRKLEAKQEPKQSKKLKNRETKNKKDMKLKRKK [NAT10]”, the “solubility in G1/S (log2)” value in series [1] is -2.26. Also, the melting temperature in series [2] (cell cycle stage: G1/S) was 49.8 °C; in series [2] (cell cycle stage: mitosis), 52.1 °C. The “solubility change mitosis (log2)” value in series [3] turned out to be 0.692. For the same sequence, the thermal stability score stood at 1.83 in series [4] (setting [5]) and 1.3 in series [4] (cell cycle stage: mitosis).

Consider “MIEQQKRKGPELPLVPVKRQRHELLLGAGSGPGAGQQQATPGALLQAGPPRCSSLQAPIMLLSGHEGEVYCCKFHPNGSTLASAGFDRLILLWNVYGDCDNYATLKGHSGAVMELHYNTDGSMLFSASTDKTVAVWDSETGERVKRLKGHTSFVNSCYPARRGPQLVCTGSDDGTVKLWDIRKKAAIQTFQNTYQVLAVTFNDTSDQIISGGIDNDIKVWDLRQNKLTYTMRGHADSVTGLSLSSEGSYLLSNAMDNTVRVWDVRPFAPKERCVKIFQGNVHNFEKNLLRCSWSPDGSKIAAGSADRFVYVWDTTSRRILYKLPGHAGSINEVAFHPDEPIIISASSDKRLYMGEIQ [SNRNP40]”, for which the “solubility in G1/S (log2)” value in series [1] was -1.09. In addition, the results for the melting temperature in series [2] (cell cycle stage: G1/S) and in series [2] (cell cycle stage: mitosis) were 49.9 °C and 50.7 °C, respectively. For the same sequence, the “solubility change mitosis (log2)” value in series [3] is 0.366. Further, the thermal stability score was -0.469 in series [4] (setting [5]) and -0.465 in series [4] (cell cycle stage: mitosis).

On to “MIRNGRGAAGGAEQPGPGGRRAVRVWCDGCYDMVHYGHSNQLRQARAMGDYLIVGVHTDEEIAKHKGPPVFTQEERYKMVQAIKWVDEVVPAAPYVTTLETLDKYNCDFCVHGNDITLTVDGRDTYEEVKQAGRYRECKRTQGVSTTDLVGRMLLVTKAHHSSQEMSSEYREYADSFGKCPGGRNPWTGVSQFLQTSQKIIQFASGKEPQPGETVIYVAGAFDLFHIGHVDFLEKVHRLAERPYIIAGLHFDQEVNHYKGKNYPIMNLHERTLSVLACRYVSEVVIGAPYAVTAELLSHFKVDLVCHGKTEIIPDRDGSDPYQEPKRRGIFRQIDSGSNLTTDLIVQRIITNRLEYEARNQKKEAKELAFLEAARQQAAQPLGERDGDF [PCYT2]”, for which the “solubility in G1/S (log2)” value in series [1] was found to be 0.000861. In addition, the melting temperature in series [2] (cell cycle stage: G1/S) came out at 54.1 °C; in series [2] (cell cycle stage: mitosis), 54.9 °C. Also, the “solubility change mitosis (log2)” value in series [3] was -0.199. In addition, the thermal stability score in series [4] (setting [5]) amounted to 0.197; in series [4] (cell cycle stage: mitosis), 0.0948.
